The values that follow are results of earlier work, collected in publication PMC11045845 (Nature Communications, 2024).

For data set [1] the following is noted: glycerylmonooleate BLMs. The text has this:
For further support, single-channel proton conductance measurements would be desirable but cannot be performed at physiological conditions owing to orders of magnitudes too small proton concentrations.

The conditions of data set [2]: literature values for comparison. How it is done: Upon increasing the lipid concentration, the intensity at the emission maximum increased and the position of the maximum was blue-shifted to lower wavelengths. A maximum blue shift of (18 ± 2) nm in the presence of 2 mM POPC was determined (Fig. 2a, blue curve, Fig. 2b), accompanied by an increase in the maximum fluorescence intensity (Fig. 2a, c). The observed blue shift indicates the partitioning of the L-trypt ...

No end group written: not given here.

Consider gramicidin A, for which, in data set [1], the “single-channel conductance GK+” value was “≈ 29 pS”. For the substance “cecropin A (KWKLFKKIEKVGQNIRDGIIKAGPAVAVVGQATQIAK; ends and bridges not checked; UniProt P01507 27-63, looked up) [antimicrobial peptide]”, in data set [2], the blue shift is listed as 15 nm. In the case of melittin, the blue shift result in data set [2] is “around 20 nm”.
